From patent publication US20150044250A1 (INTERVET, published 2015) come the findings set out here.

Data set [1] concerns the molecule itself. In words: SEC-UV (self-association).
Data set [2] deals with the molecule itself. As to the kind of experiment: SEC-MALS (self-association).

Changes are numbered by the printed parent chain. Numbers in names are those of the source.

B1: 3mCDTa1 (CDTa minus the signal peptide with R302A, E385A and E387D) (enzyme)
chain: MVCNTTYKAPIERPEDFLKDKEKAKEWERKEAERIEQKLERSEKEALESYKKDSVEISKYSQTRNYFYDYQIEANSREKEYKELRNAISKNKIDKPMYVYYFESPEKFAFNKVIRTENQNEISLEKFNEFKETIQNKLFKQDGFKDISLYEPGKGDEKPTPLLMHLKLPRNTGMLPYTNTNNVSTLIEQGYSIKIDKIVRIVIDGKHYIKAEASVVSSLDFKDDVSKGDSWGKANYNDWSNKLTPNELADVNDYMRGGYTAINNYLISNGPVNNPNPELDSKITNIENALKREPIPTNLTVYARSGPQEFGLTLTSPEYDFNKLENIDAFKSKWEGQALSYPNFISTSIGSVNMSAFAKRKIVLRITIPKGSPGAYLSAIPGYAGAYDVLLNHGSKFKINKIDSYKDGTITKLIVDATLIP
On to B1, for which the binding result in data set [1] was “binds”.

B2: 4mCDTa8 (CDTa minus the signal peptide with S345F, E385Q, E387Q and C2A) (enzyme)
chain: B1 chain with C3A, A303R, S346F, A386Q, D388Q
For B2, the binding result in data set [2] is recorded as “no binding”.
